Assay in all cases: EMSA
Conditions in all cases: EMSA: DIG gel shift kit (Roche) conditions, 0.04 ng DNA, native 6% PAGE in 0.5x TBE; SPR: HBS-EP running buffer, 25 °C, BIAcoreX, nonspecific 30-mer DNA in the …
A general note: In EMSA bound probe runs differently from free probe, usually more slowly.

Data set [1] has as its target T1, AmtR-MBP S55A S55A (Corynebacterium glutamicum ATCC13032) (UniProt H7C699).
T1 sequence: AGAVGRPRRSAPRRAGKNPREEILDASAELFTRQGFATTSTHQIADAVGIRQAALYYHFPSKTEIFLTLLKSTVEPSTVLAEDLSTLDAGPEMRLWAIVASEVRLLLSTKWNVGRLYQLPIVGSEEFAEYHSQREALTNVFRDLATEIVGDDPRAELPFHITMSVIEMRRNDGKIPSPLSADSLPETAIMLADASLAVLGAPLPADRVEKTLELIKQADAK

Data set [2] concerns the target T2, AmtR-MBP T42A T42A (Corynebacterium glutamicum ATCC13032) (UniProt H7C699).
T2 sequence: T1 sequence with T41A, A54S

Data set [3] has as its target T3, AmtR-MBP Y57A Y57A (Corynebacterium glutamicum ATCC13032) (UniProt H7C699).
T3 sequence: T1 sequence with A54S, Y56A

Data set [4] concerns the target T4, AmtR-MBP Y58A Y58A (Corynebacterium glutamicum ATCC13032) (UniProt H7C699).
T4 sequence: T1 sequence with A54S, Y57A

For data set [5], the system named is AmtR-MBP E30A (Corynebacterium glutamicum ATCC13032).
For data set [6], the system named is AmtR-MBP L71A (Corynebacterium glutamicum ATCC13032).
The subject of data set [7] is AmtR-MBP T33A (Corynebacterium glutamicum ATCC13032).

Where a chain is given by its changes, count along the chain named.

Broadly, the Kd is a measure of binding affinity in units of concentration.

Consider “GCTGGGCTAGAAACCCGATAAGCGAGAACCACCTGTCGGATGTTGTCTGGCAGGTGGTTTTCTTTTGCCTGGGTACCACCAAAAAGCAGCTGTGATGCACTTAACAATTCATTAAATTACCTGTTAAACTATAGAAAATATCCAAAACCCTCCAAAACCTATTCTATAGATCTATTGAAATTAGTTTCTGTAGGTCTATAGTTAGAGCTGGTTCAAGGGGTGTCAATCCCAAAAGGCACTCCTTGAACTCATGAAAAAGCTTGACAAAACTTCAACGTCAAAGGAGGTCATCCACGC (double strand) [amtB promoter PCR fragment]”, for which the Kd in data set [1] is 71 µM. Moreover, the binding entry in data set [2] was “binds”; in data set [3] it was “binds more weakly”; in data set [4], “binds more weakly”.
For amtB promoter PCR fragment, the Kd in data set [5] amounted to 10 µM; in data set [6] it was 20 µM; in data set [1], 71 µM; in data set [7] it was 2.2 µM.

These data come from PMC2723105, “DNA binding by Corynebacterium glutamicum TetR-type transcription regulator AmtR”.
